According to paper PMC5353611:

What was measured:
[1] = molecular target: His-tagged C-propeptide of the human procollagen α2(I) chain (C1A2His) (human); experiment: co-purification (Co2+ affinity by the His-tag of the α2 chain, gel filtration) with SDS-PAGE and MALDI-TOF mass spectrometry; α1 and α2 C-propeptides co-expressed in HEK 293T (plasmids 2:1); hetero-CPI separated from untagged homo-CPI by the His-tag of the α2 chain; with or without removal of the tag by TEV protease; Superdex S200
[2] = molecular target: His-tagged C-propeptide of the human procollagen α1(I) chain (C1A1His), chain of homo-CPI (human); experiment: SDS-PAGE (non-reducing and reducing) + MALDI-TOF mass spectrometry; purified homo-CPI; ~85 kDa non-reducing, 30 kDa reducing; disulfide-bonded trimer

Row | stoichiometry N (α1 chains per α2 chain) [1] | stoichiometry N [2] | Substance
1 | 2 | – | Non-tagged C-propeptide of the human procollagen α1(I) chain (C1A1) (domain or fragment)
2 | – | 3 | His-tagged C-propeptide of the human procollagen α1(I) chain (C1A1His), chain of homo-CPI (domain or fragment)
